Laboratory results as given in the supplement of paper PMC7125110.
± gives the standard error. Fewer inactive variants are shown than the library holds.

B1: glmS ribozyme (parent)
chain: AUAAAAGCGCCAGAACUACAGAAAUGUAGUUGACGAGGAGGAGGUUUAUCGAAUUUUCGGCGGAUGCCUCCAAA

How the values were obtained:
Details in all cases: with glucosamine-6-phosphate
glucosamine-6-phosphate [1] = variants of: B1; assay: self-cleavage kobs at 40 uM GlcN6P; higher = faster cleavage; RNA array
In short: (§1)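 kobs was derived by fitting per-tile medians to one- or two-exponential decays after normalising signals to baseline and to non-cleaving reference variants. Those signals came from barcoded ribozyme variants transcribed in situ by E. coli RNA polymerase on sequenced MiSeq chips, followed through a hybridised Cy3 probe at 37 °C and imaged over ~14 h. Glucosamine-6-phosphate (40 μM to 10 mM) in HEPES/KCl/Mg(OAc)2 buffer was flowed in. Weighted Michaelis–Menten fits across concentrations then gave kcat and KM.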

glucosamine-6-phosphate [2] = variants of: B1; assay: self-cleavage kobs at 10000 uM GlcN6P; higher = faster cleavage; RNA array
In short: as §1

glucosamine-6-phosphate [3] = variants of: B1; assay: self-cleavage kobs at 160 uM GlcN6P; higher = faster cleavage; RNA array
In short: as §1

glucosamine-6-phosphate [4] = variants of: B1; assay: self-cleavage kobs at 640 uM GlcN6P; higher = faster cleavage; RNA array
In short: as §1

glucosamine-6-phosphate [5] = variants of: B1; assay: self-cleavage kobs at 2500 uM GlcN6P; higher = faster cleavage; RNA array
In short: as §1

| Variant | self-cleavage kobs at 40 uM GlcN6P (glucosamine-6-phosphate [1]) [s⁻¹] | self-cleavage kobs at 10000 uM GlcN6P (glucosamine-6-phosphate [2]) [s⁻¹] | self-cleavage kobs at 160 uM GlcN6P (glucosamine-6-phosphate [3]) [s⁻¹] | self-cleavage kobs at 640 uM GlcN6P (glucosamine-6-phosphate [4]) [s⁻¹] | self-cleavage kobs at 2500 uM GlcN6P (glucosamine-6-phosphate [5]) [s⁻¹] |
| --- | --- | --- | --- | --- | --- |
| AUAAAUGCGCCAGAACUACAGAAAUGUAGUUGACGACGAGCAGGUUCUUCGAAUUUUCUGCGGAUGCCUCCAAA [A6U G37C G41C U47C A48U G59U] | < 1e-05 | < 1e-05 | – | – | – |
| AUAAAUGCGCCAGAACUACAGAAAUGUAGUUGACGAGGAGGAGGUUUAUCUAAUUUUCGGCGGAUGCCUCCAAA [A6U G51U] | < 1e-05 | < 1e-05 | < 1e-05 | < 1e-05 | < 1e-05 |
| AUAAAUGCGACAGAACUACAGAAAUGUAGUUGACGAGGAAGAGGUGUAUCGAAUUUUCGGCGGAUGCCUCCAAA [A6U C10A G40A U46G] | < 1e-05 | < 1e-05 | – | – | – |
| AUAAAUUCGCCAGAACUACAGAAAUGUAGUUGACGGGGAGGAGGUUUACCGAAUUUUGGGCGGAUGCCUCCAAA [A6U G7U A36G U49C C58G] | < 1e-05 | < 1e-05 | – | < 1e-05 | < 1e-05 |
| AUAAAUGCGCCAGAACUACAGAAAUGUAGUUGACCAGGAGGAGGUUUAUCCAAUUUUCGGCGGAGGCCUCCAAA [A6U G35C G51C U65G] | < 1e-05 | – | – | – | – |
| AUAAAUGCGCCAGAACUACAGAAAUGUAGUUGACGAGUAGGAGGUUUAUCGAAUUUUCGGCGGAUGCCUCAAAA [A6U G38U C71A] | < 1e-05 | – | – | – | – |
| AUAAAUGCGCCAGAACUACAGAAAUGUAGUUGACGAGGAGGAGGUUUAUAGAAUUUUCGGCGGAUGCCUCCAAA [A6U C50A] | < 1e-05 | – | < 1e-05 | < 1e-05 | – |
| AUAAAUGCGCCAGAACUACAGAAAUGUAGUUGACGAGGAGGAGGUUUAUCGAAUUUUUGGCGGAUGCCUCCAAA [A6U C58U] | < 1e-05 | < 1e-05 | < 1e-05 | < 1e-05 | < 1e-05 |
| AUAAAUGCCCCAGAACUACAGAAAUGUAGUUGACGAGGAGGAGGUUUAUCGAAUUUUCGGCGGAUGCCUCCAAA [A6U G9C] | < 1e-05 | < 1e-05 | – | < 1e-05 | – |
| AUAAAUGCGCUAGAACUACAGAAAUGUAGUUUACGAGGAGGAGGUUUAUCGAAUUUUCGGCGGAUGCCUCCAAA [A6U C11U G32U] | < 1e-05 | < 1e-05 | – | – | – |
| AUAAAUGCGCCAGAAUUACAGAAAUGUAGUUGACGAGAAGGAGGUUUAUCGAAUUUUCGGCGGAUGCCUCCAAA [A6U C16U G38A] | < 1e-05 | – | – | < 1e-05 | < 1e-05 |
| AUAAAUGCGCCAGAACUACAGAAAUGUAGUUGACGAGGAGCAGGUUUAUCGAAUUUUCGGCGGAUGCCUCCAAA [A6U G41C] | < 1e-05 | < 1e-05 | < 1e-05 | – | < 1e-05 |
| AUAAAUGCGCCAGAACUACAGAAAUGUAGUUGACGAGAAUGAGGUUUAUCCAAUUUUCGGCGGAUGCCUCCAAA [A6U G38A G40U G51C] | < 1e-05 | – | – | – | – |
| AUAAAUGUGCCAGAACUACAGAAAUGUAGUUGACGAGGAGGAGGUUUAUCGAAUUUUCGGCGGAUGCCUCCAAA [A6U C8U] | < 1e-05 | < 1e-05 | < 1e-05 | < 1e-05 | < 1e-05 |
| AUAAAUGCGAGCGAACUACAGAAAUGUAGUUGACGAGGAGGAGGUUUAUCGAACUUUCGGCGGAUGCCUCCAAA [A6U C10A C11G A12C U54C] | < 1e-05 | < 1e-05 | – | – | – |
| AUAAAUGCGCCAGAACUACAGAAAUGUAGUUGACCAGGAGGAGGUUUAUCGAAUUUUCGGCAGAUGCCUCCAAA [A6U G35C G62A] | < 1e-05 | < 1e-05 | < 1e-05 | < 1e-05 | < 1e-05 |
| AUAAAUCGGCCAGAACUACAGAAAUGUAGUUGACGAGUAGGAGGUUUAUCGAAUUUUCGGCGGAUGCCUCCAAA [A6U G7C C8G G38U] | < 1e-05 | – | – | < 1e-05 | – |
| AUAAAUGGGCCAGAACUACAGAAAUGUAGUUGACGAGCAGGAAGUUUAUCGAAUUUUCGGCGGAUGCCUCCAAA [A6U C8G G38C G43A] | < 1e-05 | < 1e-05 | – | – | – |
| AUAAAUGCGCCAGAACUACAGAAAUGUAGUUGAGGAGGAGGAGGUUUAUCGAAUUUUCGGCGGAUGCCUCCAAA [A6U C34G] | < 1e-05 | < 1e-05 | < 1e-05 | – | < 1e-05 |
| AUAAAUACGCCAGAACUACAGAAAUGUAGUUGACGAGGAGGAGUUUUAUCGUAUCUUCGGCGGUUGCCUCCAAA [A6U G7A G44U A52U U55C A64U] | < 1e-05 | < 1e-05 | – | < 1e-05 | – |
| AUAAAUGCGCCAGAACUACAGAAAUGUAUUUGACGAGAAGGAGGUUUAUCGAAUUUUAGGCGGAUGCCUCCAAA [A6U G29U G38A C58A] | < 1e-05 | – | – | – | – |
| AUAAAUGCGACAGAACUACAGAAAUGUAGUUGACGAGGAGCAGGUAUAUCGAAUUUUCGGCGGAUGCCUACAAA [A6U C10A G41C U46A C70A] | < 1e-05 | < 1e-05 | – | – | < 1e-05 |
| AUAAAUGCGCCAGAACUACAGAAAUGUAGUUGACGAGUAGGAGGUUUUUCGGAUUUUCGGCGGAUGCAGCCAAA [A6U G38U A48U A52G C68A U69G] | 7.26e-05 ± 3.3e-05 | 8.71e-05 ± 2.3e-05 | – | – | – |
| AUAAAUGCGCCACAAAUACAGAAAUGUAGUUGACGAGGAGGAGGGUUAUCGAAUUUUCGGCGGAUGCCUCCAAA [A6U G13C C16A U45G] | < 1e-05 | – | – | – | – |
| AUAAAUGCGCCAGAAUUACAGAAAUGUAGUUCACGAGGAGGUGGUUUAUCGAAUUUGCGGCGGAUGCCUCCAAA [A6U C16U G32C A42U U57G] | < 1e-05 | – | – | – | – |
| AUAAAUGCGCCAGAACUACAGAAAUGUAGUUGACGAGAAGGAGGUUUAUCGAAUUUUCGGCGGAUGCCUCCAAA [A6U G38A] | < 1e-05 | – | – | – | – |
| AUAAAUGCGCCAGAACUACAGAAAUGUAGUUGACCAGGAGGAGGUUUAUCGAAAUUUCGGCGGAUGCCUCCAAA [A6U G35C U54A] | < 1e-05 | – | – | – | – |
| AUAAAUGCGCCAGAACUACAGAAAUGUAGUUGACGAGGAGGAGGUUUAUCGAAUUUUCCGCGGAUGCCUCGAAA [A6U G59C C71G] | < 1e-05 | < 1e-05 | < 1e-05 | < 1e-05 | < 1e-05 |
| AUAAAUGCGCCAGAACUACAGAAAUGUAGUUGACGAGGACGAGGUUUAUCGAAUUUUCGGCGGAUGCCUCCAAA [A6U G40C] | < 1e-05 | – | – | – | – |
